Experimental data: article PMC13147308, “Investigating the molecular mechanisms underlying the anti‐CRISPR function of AcrIIA13b protein” (The Febs Journal, 2025)

Biological target: T1, Staphylococcus haemolyticus AcrIIA13b, wild type, with C-terminal 6xHis tag (Staphylococcus haemolyticus)
T1 construct: Monomer and dimer peaks coexist in SEC; also called shAcrIIA13b; wild-type AcrIIA13b; source: E. coli BL21 (DE3), purified (Ni-NTA, SEC)
Experiment: ITC; PBS pH 7.4, 20 °C; AcrIIA13b (500 μM) injected into the target protein (50 μM) in the cell, 25 injections; single-site model
Settings: both partners purified

Binder | Kd [nM]
SauCas9 WED-PI domain construct, His-tagged (domain or fragment) LYSTRKDDKGNTLIVNNLNGLYDKDNDKLKKLINKSPEKLLMYHHDPQTYQKLKLIMEQYGDEKNPLYKYYEETGNYLTKYSKKDNGPVIKKIKYYGNKLNAHLDITDDYPNSRNKVVKLSLKPYRFDVYLDNGVYKFVTVKNLDVIKKENYYEVNSKCYEEAKKLKKISNQAEFIASFYNNDLIKINGELYRVIGVNNDLLNRIEVNMIDITYREYLENMNDKRPPRIIKTIASKTQSIKKYSTDILGNLYEVKSKKHPQIIKKG | 120
SauCas9 WED (wedge-like) domain, His-tagged (domain or fragment) LYSTRKDDKGNTLIVNNLNGLYDKDNDKLKKLINKSPEKLLMYHHDPQTYQKLKLIMEQYGDEKNPLYKYYEETGNYLTKYSKKDNGPVIKKIKYYGNKLNAHLDITDDYPNSRNKVVKLSL | 3210
